{"source": "patent US20230167169A1", "about": "(ATRECA, published 2023)", "binders": {"B1": {"name": "AB-000224 (antibody, V domains shown)", "VH": "EVQLVESGGGLVQPGRSLRLPCTASGFSFGDHAMSWVRQAPGKGLEWVGFIRKTTYGATTHYAAAVRGRFTISRDDSKSIVYLQMNSLKTEDTAVYFCTRVQLDYGPGYQYYGMDVWGQGTTVTVSS", "VL": "ESVLTQPPSVSGAPGQRVTISCTGMNSNIGAGYDVYWYQQLPGRAPKLLIYGNSNRPSGVPDRFSGSRSGTSASLAITGLQAEDEADYYCQSYDTSLNGWAFGGGTKLTVLG"}}, "molecular_target": "T1, (NANP)6 (Plasmodium falciparum, biotinylated for the BLI assay (site not stated))", "T1 construct": "Used in both the BLI and SPR assays", "T1 peptide": "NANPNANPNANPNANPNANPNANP", "experiment": "BLI; biotinylated target on streptavidin sensor; antibody at 5 µg/mL"}
{"binder": "B1", "values": [{"measurement": "kon", "value": 275000, "unit": "M⁻¹ s⁻¹"}]}
